The source of these data is paper PMC5454376 (2017).

Sequences and labels used below:
B1: Human His-Gαi3 WT [human] / Fluorescein-labelled GIV peptide (residues 1,671–1,701) [modified: 5,6-carboxyfluorescein coupled to the resin-bound peptide after chain elongation; 5,6-carboxyfluorescein coupled to the resin-bound peptide … (parent complex)
chain 1: MGCTLSAEDKAAVERSKMIDRNLREDGEKAAKEVKLLLLGAGESGKSTIVKQMKIIHEDGYSEDECKQYKVVVYSNTIQSIIAIIRAMGRLKIDFGEAARADDARQLFVLAGSAEEGVMTPELAGVIKRLWRDGGVQACFSRSREYQLNDSASYYLNDLDRISQSNYIPTQQDVLRTRVKTTGIVETHFTFKDLYFKMFDVGGQRSERKKWIHCFEGVTAIIFCVALSDYDLVLAEDEEMNRMHESMKLFDSICNNKWFTETSIILFLNKKDLFEEKIKRSPLTICYPEYTGSNTYEEAAAYIQCQFEDLNRRKDTKEIYTHFTCATDTKNVQFVFDAVTDVIIKNNLKECGLY
chain 2: KTGSPGSEVVTLQQFLEESNKLTSVQIKSSS
B2: Human His-Gαi3 WT [human] / Fluorescein-labelled RGS12 GoLoco peptide (residues 1,185–1,221) [modified: 5,6-carboxyfluorescein coupled to the resin-bound peptide after chain elongation; 5,6-carboxyfluorescein coupled to the resin-bound … (parent complex)
chain 1: B1 chain 1
chain 2: DEAEEFFELISKAQSNRADDQRGLLRKEDLVLPEFLR

The variants in one experiment derive from B1. As to the kind of experiment: fluorescence polarisation. A general note: In fluorescence polarisation assays a small probe gives low polarisation when free and higher when bound to something large.
Broadly, the Kd is a measure of binding affinity in units of concentration. As to chain 1 MGCTLSAEDKAAVERSKMIDRNLREDGEKAAKEVKLLLLGAGESGKSTIVKQMKIIHEDGYSEDECKQYKVVVYSNTIQSIIAIIRAMGRLKIDFGEAARADDARQLFVLAGSAEEGVMTPELAGVIKRLWRDGGVQACFSRSREYQLNDSASYYLNDLDRISQSNYIPTQQDVLRTRVKTTGAVETHFTFKDLYFKMFDVGGQRSERKKWIHCFEGVTAIIFCVALSDYDLVLAEDEEMNRMHESMKLFDSICNNKWFTETSIILFLNKKDLFEEKIKRSPLTICYPEYTGSNTYEEAAAYIQCQFEDLNRRKDTKEIYTHFTCATDTKNVQFVFDAVTDVIIKNNLKECGLY [chain 1 I184A], the Kd came out at 1.91 µM. On to chain 1 MGCTLSAEDKAAVERSKMIDRNLREDGEKAAKEVKLLLLGAGESGKSTIVKQMKIIHEDGYSEDECKQYKVVVYSNTIQSIIAIIRAMGRLKIDFGEAARADDARQLFVLAGSAEEGVMTPELAGVIKRLWRDGGVQACFSRSREYQLNDSASYYLNDLDRISQSNYIPTQQDVLRTRVKTTGIVETHFTFKDLYFKMFDVGGQRSERKKWIHCFEGVTAIIFCVALSDYDLVLAEDEEMNRMHESMKLFDAICNNKWFTETSIILFLNKKDLFEEKIKRSPLTICYPEYTGSNTYEEAAAYIQCQFEDLNRRKDTKEIYTHFTCATDTKNVQFVFDAVTDVIIKNNLKECGLY [chain 1 S252A], for which the equilibrium dissociation constant (Kd) was found to be 0.243 µM. On the same count and under the same terms, for chain 1 MGCTLSAEDKAAVERSKMIDRNLREDGEKAAKEVKLLLAGAGESGKSTIVKQMKIIHEDGYSEDECKQYKVVVYSNTIQSIIAIIRAMGRLKIDFGEAARADDARQLFVLAGSAEEGVMTPELAGVIKRLWRDGGVQACFSRSREYQLNDSASYYLNDLDRISQSNYIPTQQDVLRTRVKTTGIVETHFTFKDLYFKMFDVGGQRSERKKWIHCFEGVTAIIFCVALSDYDLVLAEDEEMNRMHESMKLFDSICNNKWFTETSIILFLNKKDLFEEKIKRSPLTICYPEYTGSNTYEEAAAYIQCQFEDLNRRKDTKEIYTHFTCATDTKNVQFVFDAVTDVIIKNNLKECGLY [chain 1 L39A] the value was 3.08 µM; for chain 1 MGCTLSAEDKAAVERSKMIDRNLREDGEKAAKEVKLLLLGAGESGKSTIVKQMKIIHEDGYSEDECKQYKVVVYSNTIQSIIAIIRAMGRLKIDFGEAARADDARQLFVLAGSAEEGVMTPELAGVIKRLWRDGGVQACFSRSREYQLNDSASYYLNDLDRISQSNYIPTQQDVLRTRVKTTGIVETHFTFKDLYFKMFDVGGQRSERKKWIHCFEGVTAIIFCVALSDYDLVLAEDEEMNRMHESMKLFDSICNNAWFTETSIILFLNKKDLFEEKIKRSPLTICYPEYTGSNTYEEAAAYIQCQFEDLNRRKDTKEIYTHFTCATDTKNVQFVFDAVTDVIIKNNLKECGLY [chain 1 K257A], 0.87 µM; for chain 1 MGCTLSAEDKAAVERSKMIDRNLREDGEKAAKEVKALLLGAGESGKSTIVKQMKIIHEDGYSEDECKQYKVVVYSNTIQSIIAIIRAMGRLKIDFGEAARADDARQLFVLAGSAEEGVMTPELAGVIKRLWRDGGVQACFSRSREYQLNDSASYYLNDLDRISQSNYIPTQQDVLRTRVKTTGIVETHFTFKDLYFKMFDVGGQRSERKKWIHCFEGVTAIIFCVALSDYDLVLAEDEEMNRMHESMKLFDSICNNKWFTETSIILFLNKKDLFEEKIKRSPLTICYPEYTGSNTYEEAAAYIQCQFEDLNRRKDTKEIYTHFTCATDTKNVQFVFDAVTDVIIKNNLKECGLY [chain 1 L36A], 0.706 µM.

Turning to chain 1 MGCTLSAEDKAAVERSKMIDRNLREDGEKAAKEVKLLLLGAGESGKSTIVKQMKIIHEDGYSEDECKQYKVVVYSNTIQSIIAIIRAMGRLKIDFGEAARADDARQLFVLAGSAEEGVMTPELAGVIKRLWRDGGVQACFSRSREYQLNDSASYYLNDLDRISQSNYIPTQQDVLRTRVKTTGIVETHFTFKDLYFKMFDVGGQRSERKKWIHCFEGVTAIIFCVALSDYDLVLAEDEEMNRMHESMKLFDSICNNKFFTETSIILFLNKKDLFEEKIKRSPLTICYPEYTGSNTYEEAAAYIQCQFEDLNRRKDTKEIYTHFTCATDTKNVQFVFDAVTDVIIKNNLKECGLY [chain 1 W258F], the Kd came to 1.82 µM.

On to chain 1 MGCTLSAEDKAAVERSKMIDRNLREDGEKAAKEVKLLLLGAGESGKSTIVKQMKIIHEDGYSEDECKQYKVVVYSNTIQSIIAIIRAMGRLKIDFGEAARADDARQLFVLAGSAEEGVMTPELAGVIKRLWRDGGVQACFSRSREYQLNDSASYYLNDLDRISQSNYIPTQQDVLRTRVKTTGIVETHFTFKDLYFKMFDVGGQRSERKKWIHCFEGATAIIFCVALSDYDLVLAEDEEMNRMHESMKLFDSICNNKWFTETSIILFLNKKDLFEEKIKRSPLTICYPEYTGSNTYEEAAAYIQCQFEDLNRRKDTKEIYTHFTCATDTKNVQFVFDAVTDVIIKNNLKECGLY [chain 1 V218A], for which the dissociation constant Kd worked out at 0.362 µM. The same measure, in the same setting: under chain 1 MGCTLSAEDKAAVERSKMIDRNLREDGEKAAKEVKLALLGAGESGKSTIVKQMKIIHEDGYSEDECKQYKVVVYSNTIQSIIAIIRAMGRLKIDFGEAARADDARQLFVLAGSAEEGVMTPELAGVIKRLWRDGGVQACFSRSREYQLNDSASYYLNDLDRISQSNYIPTQQDVLRTRVKTTGIVETHFTFKDLYFKMFDVGGQRSERKKWIHCFEGVTAIIFCVALSDYDLVLAEDEEMNRMHESMKLFDSICNNKWFTETSIILFLNKKDLFEEKIKRSPLTICYPEYTGSNTYEEAAAYIQCQFEDLNRRKDTKEIYTHFTCATDTKNVQFVFDAVTDVIIKNNLKECGLY [chain 1 L37A] stands 0.478 µM; under chain 1 MGCTLSAEDKAAVERSKMIDRNLREDGEKAAKEVKLLLLGAGESGKSTIVKQMKIIHEDGYSEDECKQYKVVVYSNTIQSIIAIIRAMGRLKIDFGEAARADDARQLFVLAGSAEEGVMTPELAGVIKRLWRDGGVQACFSRSREYQLNDSASYYLNDLDRISQSNYIPTQQDVLRTRVKTTGIVETHFTFKDLYFKMFDVGGQRSERKKWIHCFEGVTAIIFCVALSDYDLVLAEDEEMNRMHESMKLFDSICNNKWATETSIILFLNKKDLFEEKIKRSPLTICYPEYTGSNTYEEAAAYIQCQFEDLNRRKDTKEIYTHFTCATDTKNVQFVFDAVTDVIIKNNLKECGLY [chain 1 F259A], 1.26 µM.

The variants in a further experiment derive from B1. As to the kind of experiment: fluorescence polarisation. This is another data set of the same source.
In the case of chain 1 MGCTLSAEDKAAVERSKMIDRNLREDGEKAAKEVKLLLLGAGESGKSTIVKQMKIIHEDGYSEDECKQYKVVVYSNTIQSIIAIIRAMGRLKIDFGEAARADDARQLFVLAGSAEEGVMTPELAGVIKRLWRDGGVQACFSRSREYQLNDSASYYLNDLDRISQSNYIPTQQDVLRTRVKTTGIVETHFTFKDLYFKMFDVGGQRSERKKWIHCFEGVTAIIFCVALSDYDLVLAEDEEMNRMHESMKLFDSICNNKWFTETSIILFLNKKDLFEEKIKRSPLTICYPEYTGSNTYEEAAAYIQCQFEDLNRRKDTWEIYTHFTCATDTKNVQFVFDAVTDVIIKNNLKECGLY [chain 1 K317W], the dissociation constant Kd came to 0.51 µM.

Regarding chain 1 MGCTLSAEDKAAVERSKMIDRNLREDGEKAAKEVKLLLLGAGESGKSTIVKQMKIIHEDGYSEDECKQYKVVVYSNTIQSIIAIIRAMGRLKIDFGEAARADDARQLFVLAGSAEEGVMTPELAGVIKRLWRDGGVQACFSRSREYQLNDSASYYLNDLDRISQSNYIPTQQDVLRTRVKTTGIVETHFTFKDLYFKMFDVGGQRSERKKWIHCFEGVTAIIFCVALSDYDLVLAEDEEMNRMHESMKLFDSICNNKWFTETSIILFLNKKDLFEEKIKRSPLTICYPEYTGSNTYEEAAAYIQCQFEDLNRRKDTAEIYTHFTCATDTKNVQFVFDAVTDVIIKNNLKECGLY [chain 1 K317A], the dissociation constant Kd was determined as 0.59 µM. Same read-out and setting: under chain 1 MGCTLSAEDKAAVERSKMIDRNLREDGEKAAKEVKLLLLGAGESGKSTIVKQMKIIHEDGYSEDECKQYKVVVYSNTIQSIIAIIRAMGRLKIDFGEAARADDARQLFVLAGSAEEGVMTPELAGVIKRLWRDGGVQACFSRSREYQLNDSASYYLNDLDRISQSNYIPTQQDVLRTRVKTTGIVETHFTFKDLYFKMFDVGGQRSERKKWIHCFEGVTAIIFCVALSDYDLVLAEDEEMNRMHESMKLFDSICNNKWFTETSIILFLNKKDLFEEKIKRSPLTICYPEYTGSNTYEEAAAYIQCQFEDLNRAKDTKEIYTHFTCATDTKNVQFVFDAVTDVIIKNNLKECGLY [chain 1 R313A] stands 0.8 µM.

In a further experiment the parent is B2. In words: fluorescence polarisation.
With chain 1 MGCTLSAEDKAAVERSKMIDRNLREDGEKAAKEVKLLLLGAGESGKSTIVKQMKIIHEDGYSEDECKQYKVVVYSNTIQSIIAIIRAMGRLKIDFGEAARADDARQLFVLAGSAEEGVMTPELAGVIKRLWRDGGVQACFSRSREYQLNDSASYYLNDLDRISQSNYIPTQQDVLRTRVKTTGIVETHFTFKDLYFKMFDVGGQRSERKKWIHCFEGVTAIIFCVALSDYDLVLAEDEEMNRMHESMKLFDSICNEKWFTETSIILFLNKKDLFEEKIKRSPLTICYPEYTGSNTYEEAAAYIQCQFEDLNRRKDTKEIYTHFTCATDTKNVQFVFDAVTDVIIKNNLKECGLY [chain 1 N256E], the dissociation constant (Kd) was found to be 0.314 µM. The same measure, in the same setting: under chain 1 MGCTLSAEDKAAVERSKMIDRNLREDGEKAAKEVKLLLLGAGESGKSTIVKQMKIIHEDGYSEDECKQYKVVVYSNTIQSIIAIIRAMGRLKIDFGEAARADDARQLFVLAGSAEEGVMTPELAGVIKRLWRDGGVQACFSRSREYQLNDSASYYLNDLDRISQSNYIPTQQDVLRTRVKTTGIVETHFTFKDLYFKMFDVGGQRSERKKWIHCFEGATAIIFCVALSDYDLVLAEDEEMNRMHESMKLFDSICNNKWFTETSIILFLNKKDLFEEKIKRSPLTICYPEYTGSNTYEEAAAYIQCQFEDLNRRKDTKEIYTHFTCATDTKNVQFVFDAVTDVIIKNNLKECGLY [chain 1 V218A] stands 0.104 µM. Same read-out and setting: for chain 1 MGCTLSAEDKAAVERSKMIDRNLREDGEKAAKEVALLLLGAGESGKSTIVKQMKIIHEDGYSEDECKQYKVVVYSNTIQSIIAIIRAMGRLKIDFGEAARADDARQLFVLAGSAEEGVMTPELAGVIKRLWRDGGVQACFSRSREYQLNDSASYYLNDLDRISQSNYIPTQQDVLRTRVKTTGIVETHFTFKDLYFKMFDVGGQRSERKKWIHCFEGVTAIIFCVALSDYDLVLAEDEEMNRMHESMKLFDSICNNKWFTETSIILFLNKKDLFEEKIKRSPLTICYPEYTGSNTYEEAAAYIQCQFEDLNRRKDTKEIYTHFTCATDTKNVQFVFDAVTDVIIKNNLKECGLY [chain 1 K35A] the value was 0.152 µM; for chain 1 MGCTLSAEDKAAVERSKMIDRNLREDGEKAAKEVKLLLLGAGESGKSTIVKQMKIIHEDGYSEDECKQYKVVVYSNTIQSIIAIIRAMGRLKIDFGEAARADDARQLFVLAGSAEEGVMTPELAGVIKRLWRDGGVQACFSRSREYQLNDSASYYLNDLDRISQSNYIPTQQDVLRTRVKTTGIVETHFTFKDLYFKMFDVGGQRSERKKWIHCFEGVTAIIFCVALSDYDLVLAEDEEMNRMHESMKLFDSICNNKWATETSIILFLNKKDLFEEKIKRSPLTICYPEYTGSNTYEEAAAYIQCQFEDLNRRKDTKEIYTHFTCATDTKNVQFVFDAVTDVIIKNNLKECGLY [chain 1 F259A], 0.187 µM.
